Experimental data taken from PMC5640651, “Interfering with the high-affinity interaction between wheat amylase trypsin inhibitor CM3 and toll-like receptor 4: in silico and biosensor-based studies” (Scientific Reports, 2017).
Blank lines part the entries; values can stand above or below the binder they belong to.

Assays:
Details in all cases: both partners purified
[1] = target: T1, human toll-like receptor 4, His-tagged (human, UniProt O00206 24-631); assay: SPR; IAsys plus resonant mirror biosensor; TLR4-His immobilised; 37 °C; 20 mM PBS, no NaCl
T1 construct: toll-like receptor 4, human; called the extracellular domain of TLR4 in the results; described as a 100 kDa protein with isoelectric point 5.88; Coupled covalently to the carboxylate cuvette by EDC/NHS 'via the N-terminus of the poly-His tail'; also called TLR4; TLR4-His; source: pEF-BOS TLR4 plasmid, transfected in HCT-116 cell line (author contributions)

[2] = target: T1, human toll-like receptor 4, His-tagged; assay: SPR; IAsys plus resonant mirror biosensor; TLR4-His immobilised; 37 °C; 20 mM PBS, 25 mM NaCl
[3] = target: T1, human toll-like receptor 4, His-tagged; assay: SPR; IAsys plus resonant mirror biosensor; TLR4-His immobilised; 37 °C; 20 mM PBS, 50 mM NaCl
[4] = target: T1, human toll-like receptor 4, His-tagged; assay: SPR; IAsys plus evanescent wave/resonant mirror biosensor (the paper calls it surface plasmon resonance); TLR4-His covalently immobilised on carboxylate cuvette; 37 °C; PBS pH 7.4 with 140 mM NaCl; mono-exponential fits
[5] = target: T1, human toll-like receptor 4, His-tagged; assay: as above; remark: listed apart in the source
[6] = target: T1, human toll-like receptor 4, His-tagged; assay: as above; remark: listed apart in the source

T1 sequence (O00206 24-631): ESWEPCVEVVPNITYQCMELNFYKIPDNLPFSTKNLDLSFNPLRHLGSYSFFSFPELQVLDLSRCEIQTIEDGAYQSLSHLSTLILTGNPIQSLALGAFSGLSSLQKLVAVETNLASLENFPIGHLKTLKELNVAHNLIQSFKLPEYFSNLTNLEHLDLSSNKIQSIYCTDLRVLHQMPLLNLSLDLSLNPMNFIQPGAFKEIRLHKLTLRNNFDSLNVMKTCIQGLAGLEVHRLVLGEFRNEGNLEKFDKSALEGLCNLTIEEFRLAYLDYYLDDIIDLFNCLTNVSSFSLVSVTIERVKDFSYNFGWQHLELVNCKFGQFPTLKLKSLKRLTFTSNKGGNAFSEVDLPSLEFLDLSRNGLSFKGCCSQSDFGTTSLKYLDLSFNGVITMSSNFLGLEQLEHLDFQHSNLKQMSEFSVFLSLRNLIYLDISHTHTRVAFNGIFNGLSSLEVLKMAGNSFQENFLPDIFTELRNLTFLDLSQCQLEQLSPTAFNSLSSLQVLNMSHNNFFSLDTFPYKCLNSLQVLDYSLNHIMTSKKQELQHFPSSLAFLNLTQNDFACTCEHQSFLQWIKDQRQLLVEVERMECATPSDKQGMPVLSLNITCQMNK

Kd [1]: 2.3 nM | koff [1]: 0.0001 s⁻¹ | kon [1]: 43000 M⁻¹ s⁻¹ | Kd [2]: 10 nM | koff [2]: 0.0004 s⁻¹ | kon [2]: 39000 M⁻¹ s⁻¹ | Kd [3]: 18 nM | koff [3]: 0.0007 s⁻¹ | kon [3]: 40000 M⁻¹ s⁻¹ | Kd [4]: 36 nM | stoichiometry N [4]: 1 | Kd [5]: 61 nM | koff [5]: 0.0025 s⁻¹ | kon [5]: 41000 M⁻¹ s⁻¹
B1: wheat amylase trypsin inhibitor CM3 (natural protein, UniProt P17314 26-168, looked up)
chain: SGSCVPGVAFRTNLLPHCRDYVLQQTCGTFTPGSKLPEWMTSASIYSPGKPYLAKLYCCQELAEISQQCRCEALRYFIALPVPSQPVDPRSGNVGESGLIDLPGCPREMQWDFVRLLVAPGQCNLATIHNVRYCPAVEQPLWI
notes: also called ATI; wheat ATI CM3

stoichiometry N [4]: 1 | Kd [6]: 1400 nM | koff [6]: 0.005 s⁻¹ | kon [6]: 3620 M⁻¹ s⁻¹
B2: RSGNVGESGLI oligopeptide derived from wheat ATI CM3 (peptide)
peptide: RSGNVGESGLI
notes: stretch of wheat ATI CM3; also called straight peptide; StrP; source: synthetic peptide
